Target: the molecule itself
Test: size-based filtration (300-kDa cutoff filter)

B1: N-terminally 6×His-tagged truncated form of ClpX (lacking the first 60 amino acids) (enzyme)
chain: not shown
notes: ClpX ATPase, M. tuberculosis, lacking the first 60 amino acids; also called hexameric ClpX
stoichiometry N: 6

From PMC7847540, “ClpX Is Essential and Activated by Single-Strand DNA Binding Protein in Mycobacteria” (Journal of Bacteriology, 2020)
